Results published in publication PMC9279222, “Human myelin proteolipid protein structure and lipid bilayer stacking” (Cellular and Molecular Life Sciences: CMLS, 2022).

B1: human DM20 (shorter isoform of myelin proteolipid protein) (natural protein, UniProt P60201-2 1-242, looked up)
chain: MGLLECCARCLVGAPFASLVATGLCFFGVALFCGCGHEALTGTEKLIETYFSKNYQDYEYLINVIHAFQYVIYGTASFFFLYGALLLAEGFYTTGAVRQIFGDYKTTICGKGLSATFVGITYALTVVWLLVFACSAVPVYIYFNTWTTCQSIAFPSKTSASIGSLCADARMYGVLPWNAFPGKVCGSNLLSICKTAEFQMTFHLFIAAFVGAAATLVSLLTFMIAATYNFAVLKLMGRGTKF
notes: DM20, minor isoform of human PLP (26 kDa), lacks 35 residues in the intracellular loop; Studied in a detergent complex (DM or UDM); source: Sf21 insect cells (baculovirus), solubilized in DM or UDM, purified (IMAC, TEV cleavage, reverse IMAC, SEC); not shown: eGFP, C-terminal, cleaved; His8, C-terminal, cleaved
B2: human myelin proteolipid protein (natural protein, UniProt P60201-1 1-277, looked up)
chain: MGLLECCARCLVGAPFASLVATGLCFFGVALFCGCGHEALTGTEKLIETYFSKNYQDYEYLINVIHAFQYVIYGTASFFFLYGALLLAEGFYTTGAVRQIFGDYKTTICGKGLSATVTGGQKGRGSRGQHQAHSLERVCHCLGKWLGHPDKFVGITYALTVVWLLVFACSAVPVYIYFNTWTTCQSIAFPSKTSASIGSLCADARMYGVLPWNAFPGKVCGSNLLSICKTAEFQMTFHLFIAAFVGAAATLVSLLTFMIAATYNFAVLKLMGRGTKF
notes: myelin proteolipid protein (PLP), human, 30 kDa; cloned from acc; NM_000533; Studied in a detergent complex (DM, UDM or d-DDM); also called PLP; myelin PLP; source: Sf21 insect cells (baculovirus), solubilized in DM or UDM, purified (IMAC, TEV cleavage, reverse IMAC, SEC); not shown: eGFP, C-terminal, cleaved; His8, C-terminal, cleaved

Target: the molecule itself
Experiment: SEC-MALS; protein conjugate analysis; 50 µg protein on Superdex 200 Increase 10/300 in 0.2% DM, 0.3 M NaCl, 0.5 mM TCEP, 5% glycerol, 20 mM Tris pH 7.5; protein-detergent complex

Protein	stoichiometry N
B1	2
B2	2
